{"source": "patent US6570069B1", "about": "“Nucleic acids encoding plant inhibitors of apoptosis and transgenic cells and plants expressing them” (priority 2000, dated 2003)", "molecules": {"B1": {"name": "GST-XIAP-BIR1 (other, human, UniProt P98170 1-123, looked up, not shown: a dimerising Fc or GST)", "chain": "MTFNSFEGSKTCVPADINKEEEFVEEFNRLKTFANFPSGSPVSASTLARAGFLYTGEGDTVRCFSCHAAVDRWQYGDSAVGRHRKVSPNCRFINGFYLENSATQSTNSGIQNGQYKVENYLGS", "notes": "domain: BIR1; also called BIR1 domain of XIAP"}, "B2": {"name": "XIAP-BIR1: control protein consisting of the BIR1 domain of XIAP (protein)", "chain": "B1 chain", "modifications": "left off: a dimerising Fc or GST"}, "B3": {"name": "GST-CpIAP (other)", "chain": "MSDLRLEEVRLNTFEKWPVSFLSPETMAKNGFYYLGRSDEVRCAFCKVEIMRWKEGEDPAADHKKWAPQCPFVKGIDVCGSIVTTNNIQNTTTHDTIIGPAHPKYAHEAARVKSFHNWPRCMKQRPEQMADAGFFYTGYGDNTKCFYCDGGLKDWEPEDVPWEQHVRWFDRCAYVQLVKGRDYVQKVITEACVLPGENTTVSTAAPVSEPIPETKIEKEPQVEDSKLCKICYVEECIVCFVPCGHVVACAKCALSVDKCPMCRKIVTSVLKVYFS", "notes": "range 1-275"}, "B4": {"name": "recombinant purified caspase-3 (enzyme, mammalian)", "chain": "SGISLDNSYKMDYPEMGLCIIINNKNFHKSTGMTSRSGTDVDAANLRETFRNLKYEVRNKNDLTREEIVELMRDVSKEDHSKRSSFVCVLLSHGEEGIIFGTNGPVDLKKITNFFRGDRCRSLTGKPKLFIIQACRGTELDCGIETDSGVDDDMACHKIPVEADFLYAYSTAPGYYSWRNSKDGSWFIQSLCAMLKQYADKLEFMHILTRVNRKVATEFESFSFDATFHAKKQIPCIVSMLTKELYFYHHHHHHH", "notes": "also called caspases-3"}, "B5": {"name": "GST-SfIAP (other, not shown: a dimerising Fc or GST)", "chain": "MWSCSLPCWNTKKSGLQMDITKVASNGSSSTLTLFKSGSLEAKIRPLAPLMLPTPSYDSNAGSPSLSPSTPCSSSSFSIDKTDNHDTFGFSADTVDMRKEDERMKTFEKWPVSFLSGEQLARNGFYYLGRRDEARCAFCKVEIMRWVEGDDPAKDHQRWAPQCPFVRKLNGTAAADTGSSGQDECGARAAPSGTSPPRMAGPVHPRYASEAARLRSFKDWPRCMRQKPEELAEAGFFYTGQGDKTKCFYCDGGLKDWENHDVPWEQHARWFDRCAYVQLVKGREYVQKVISEACEVSASEAERDVAPARTAEPSPPAEAPENSVDDSKLCKICYAEERNVCFVPCGHVVACAKCALAADKCPMCRRTFQNAVRLYFS", "notes": "also called recombinant SfIAP; recombinant-purified SfIAP"}}, "key": {"SfIAP": {"system": "SfIAP", "assay": "Grim peptide effect on SfIAP-mediated suppression of caspases in cyto c-stimulated cell extracts", "assay_type": "biochemical, Spodoptera frugiperda", "details": "cyto c-stimulated cytosol extracts", "procedure": "(§1) Caspase activity was assayed by release of 7-amino-4-trifluoromethyl-coumarin (AFC) from Ac-DEVD or Ac-LEHD-containing synthetic peptides (Calbiochem) using continuous-reading instuments as described (Quan, L. T. et al., (1995) J. Biol. Chem. 270:10377-10379).\n(§2) Cytosolic extracts were prepared as described (Deveraux, Q., Takahashi, R., Salvesen, G. S. & Reed, J. C. (1997) Nature 388, 300-303) using human embryonic kidney (HEK) 293 cells. Cells were washed with ice-cold buffer A (20 mM HEPES pH 7.5, 10 mM KCl, 1.5 mM MgCl2, 1 mM EDTA and 1 mM DTT), suspended in 1 volume of buffer A, incubated on ice for 20 mins, and then disrupted by 15 passages through a 26-gauge needle. Cell extracts were purified by centrifugation at 15000 g for 12 mins and supernatants were stored at −80 ° C. For initiating caspase activation, either 100 nM of purified recombinant caspase-8 or 1 μM horse heart cytochrome c (Sigma) together with 1 mM dATP was added to extracts (Deveraux, Q. L., et al., (1998) EMBO J. 17, 2215-2223).\nIt has been proposed that Drosophila apoptosis-inducers such as Grim function as negative regulators of IAPs (Deveraux, Q. & Reed, J. C. (1998) Genes Dev. 13, 239-252; Wang, S. et al. (1999) Cell 98, 453-463). […]"}, "CpIAP": {"molecular_target": "T1, CpIAP (Cydia pomonella granulosis virus, UniProt P41436)", "T1 construct": "The complete ORF of CpIAP was subcloned into the EcoRI-EcoRV sites of pcDNA3-myc or the EcoRI-SalI sites in pGEX4T-1; GST (N); made in house; host or cells: E. coli BL21 (DE3) containing pT-Trx", "T1 sequence (P41436 1-275)": "B3 chain", "assay": "Grim peptide effect on CpIAP inhibition of mammalian caspases in vitro", "assay_type": "biochemical, baculovirus"}, "[1]": {"molecular_target": "GST-SfIAP (Spodoptera frugiperda)", "assay": "cell-based or functional assay"}, "[35S]pro-caspase-9": {"molecular_target": "T2, [35S]pro-caspase-9 (mammalian, UniProt P55211 1-416, limits assumed)", "T2 construct": "also called in vitro-translated pro-caspase-9", "T2 sequence (looked up)": "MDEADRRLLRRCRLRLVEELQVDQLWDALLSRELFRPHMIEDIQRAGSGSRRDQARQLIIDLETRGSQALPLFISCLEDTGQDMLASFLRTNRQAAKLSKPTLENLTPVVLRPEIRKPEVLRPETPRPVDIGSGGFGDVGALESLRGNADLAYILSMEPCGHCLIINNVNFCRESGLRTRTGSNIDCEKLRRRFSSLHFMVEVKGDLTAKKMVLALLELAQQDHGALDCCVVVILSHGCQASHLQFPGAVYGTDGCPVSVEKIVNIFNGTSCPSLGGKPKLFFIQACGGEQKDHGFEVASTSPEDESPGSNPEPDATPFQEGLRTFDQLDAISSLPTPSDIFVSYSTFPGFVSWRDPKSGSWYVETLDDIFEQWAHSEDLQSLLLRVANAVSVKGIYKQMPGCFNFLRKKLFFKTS", "assay": "GST pull-down of in vitro-translated [35S]pro-caspase-9 on glutathione-Sepharose, SDS-PAGE and autoradiography"}, "[2]": {"system": "caspase-3 and similar DEVD-cleaving proteases in cell extracts treated with cyto c", "assay": "Cell-free caspase activation induced by cyto c in HEK 293 cytosolic extracts", "assay_type": "biochemical, human", "details": "recombinant protein, cell extracts treated with cyto c", "procedure": "as §1, §2\nTo further explore the mechanisms by which SfIAP and CpIAP inhibit mammalian apoptosis, a cell-free system in which exogenously added active caspase-8 or cyto c induces activation of caspase-3 and similar proteases, as measured by hydrolysis of Ac-DEVD-AFC (Quan, L. T. et al., (1995) J. Biol. Chem. 270, 10377-10379) was used. Caspase-8 and cyto c trigger the same apoptosis pathways in extracts which are activated by Fas and Bax in intact cells."}, "pro-caspase-9": {"molecular_target": "T3, pro-caspase-9 (Homo sapiens, UniProt P55211)", "T3 construct": "host or cells: cell-free in vitro transcription/translation", "T3 sequence (P55211 1-416)": "T2 sequence (looked up)", "assay": "GST pull-down binding of [35S]-pro-caspase-9", "set-up": "species or system mammalian", "details": "GST fusion protein on glutathione-Sepharose", "procedure": "[^35S]Pro-caspase-9 was in vitro transcribed and translated in the presence of [^35S]L-methionine using TNT kit from Promega. Protein were desalted and exchanged into buffer (20 mM HEPES pH 7.5, 10 mM KCl, 1.5 mM MgCl2, 1 mM EDTA and 1 mM DTT) with Bio-spin P-6 columns (Bio-Rad). […] After incubation at 4 ° C. for 1 hour, beads were removed by centrifugation and washed twice with 0.5 ml of 50 mM Tris (pH 7.5), 150 mM NaCl, 2 mm DTT before analysis by SDS-PAGE and autoradiography."}, "[3]": {"molecular_target": "T4, recombinant purified caspase-7 (mammalian, UniProt P55210 24-303)", "T4 construct": "also called caspases-7", "T4 sequence": "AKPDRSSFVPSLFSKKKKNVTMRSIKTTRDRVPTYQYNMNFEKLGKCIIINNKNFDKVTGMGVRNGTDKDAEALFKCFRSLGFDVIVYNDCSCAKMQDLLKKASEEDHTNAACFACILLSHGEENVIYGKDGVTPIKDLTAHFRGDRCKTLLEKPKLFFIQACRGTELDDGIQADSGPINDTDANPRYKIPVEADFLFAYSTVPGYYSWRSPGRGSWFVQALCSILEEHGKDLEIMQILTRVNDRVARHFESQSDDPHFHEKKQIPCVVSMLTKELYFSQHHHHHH", "assay": "in vitro binding with recombinant purified caspase; method not described"}, "GST-CpIAP": {"molecular_target": "B3", "assay": "in vitro binding with recombinant purified caspase; method not described"}, "[4]": {"molecular_target": "recombinant active caspase-9 (caspase-9 lacking the CARD domain) (mammalian), P55211", "assay": "cell-based or functional assay"}, "[5]": {"molecular_target": "B4", "assay": "in vitro binding with recombinant purified caspase; method not described"}}, "note": "“Also recorded” adds a separate entry of the source."}
{"molecule": "Grim peptide: peptide corresponding to the IAP-binding domain of Grim (first 18 amino acid of Grim) (MAIAYFIPDQAQLLARSY; UniProt Q24570 1-18, looked up, fragment)", "values": [{"measurement": "effect on SfIAP inhibition of cyto c-induced activation of DEVD-cleaving caspases", "setting": "SfIAP", "result": "abrogated this inhibitory effect of SfIAP in a concentration-dependent manner; also recorded: negate the ability of SfIAP and CpIAP to inhibit mammalian caspases"}, {"measurement": "excess of peptide relative to SfIAP resulting in complete restoration of caspase activity", "setting": "SfIAP", "result": 5, "unit": "fold"}, {"measurement": "effect on ability of CpIAP to inhibit mammalian caspases", "setting": "CpIAP", "result": "negate the ability of SfIAP and CpIAP to inhibit mammalian caspases"}]}
{"molecule": "Grim peptide (IAP-binding domain of Grim, first 18 amino acids) (from UniProt Q24570 1-18)", "values": [{"measurement": "restoration of DEVD-cleaving caspase activity in cyto c-stimulated cell extracts suppressed by SfIAP", "setting": "[1]", "result": 5, "unit": "fold excess"}]}
{"molecule": "B1", "values": [{"measurement": "binding result", "setting": "[35S]pro-caspase-9", "result": "no binding"}]}
{"molecule": "B2", "values": [{"measurement": "effect on hydrolysis of Ac-DEVD-AFC (caspase activity)", "setting": "[2]", "result": "did not interfere with caspase activity"}, {"measurement": "binding to pro-caspase-9 (autoradiography)", "setting": "pro-caspase-9", "result": "failed to bind caspase-9"}]}
{"molecule": "B3", "values": [{"measurement": "binding result", "setting": "[3]", "result": "no binding"}]}
{"molecule": "B4", "values": [{"measurement": "binding result", "setting": "GST-CpIAP", "result": "no binding"}]}
{"molecule": "B5", "values": [{"measurement": "molar-excess relative to caspase-9 which produced ~50% inhibition of protease activity (Ac-LEHD-AFC substrate) (fold molar excess)", "setting": "[4]", "result": 8}, {"measurement": "binding result", "setting": "[3]", "result": "no binding"}, {"measurement": "binding result", "setting": "[5]", "result": "no binding"}]}
